From publication PMC5218414 (PLoS ONE, 2017)
Several values for one entry are separate records, joined by “and”; a condition that tells them apart may be missing. Equal entries are not always repeated.

Target: T1, human epidermal growth factor receptor (EGFR) (Homo sapiens, UniProt P00533)
T1 construct: human epidermal growth factor receptor, used as a 'monovalent antigen' in solution
Assay: SPR; ProteOn XPR36 one-shot kinetics; antibodies amine-coupled onto GLC chips, EGFR injected as monovalent analyte for 3 min (5fold and 3fold series, top 56 nM; over matuzumab 3fold series, top 278 nM); 25°C, PBS + 0.01% Tween-20; global Langmuir model with mass transport; apparent
Settings: both partners purified

Binder | Kd | koff | kon
matuzumab Fab fragment (Fab, V domains shown, Fab heavy chain of matuzumab; light chain of matuzumab; source: Expi293 transient expression, co-transfection of heavy and light chain vectors, purified (IMAC, Ni Sepharose Excel)) VH: QVQLVQSGAEVKKPGASVKVSCKASGYTFTSHWMHWVRQAPGQGLEWIGEFNPSNGRTNYNEKFKSKATMTVDTSTNTAYMELSSLRSEDTAVYYCASRDYDYAGRYFDYWGQGTLVTVSS VL: DIQMTQSPSSLSASVGDRVTITCSASSSVTYMYWYQQKPGKAPKLLIYDTSNLASGVPSRFSGSGSGTDYTFTISSLQPEDIATYYCQQWSSHIFTFGQGTKVEIK | 93.1 nM and 92.6 nM | 0.034 s⁻¹ and 0.031 s⁻¹ | 360000 M⁻¹ s⁻¹ and 340000 M⁻¹ s⁻¹
necitumumab (IMC-11F8) Fab fragment (Fab, V domains shown, Fab heavy chain of necitumumab; light chain of necitumumab; source: Expi293 transient expression, co-transfection of heavy and light chain vectors, purified (IMAC, Ni Sepharose Excel)) VH: QVQLQESGPGLVKPSQTLSLTCTVSGGSISSGDYYWSWIRQPPGKGLEWIGYIYYSGSTDYNPSLKSRVTMSVDTSKNQFSLKVNSVTAADTAVYYCARVSIFGVGTFDYWGQGTLVTVSS VL: EIVMTQSPATLSLSPGERATLSCRASQSVSSYLAWYQQKPGQAPRLLIYDASNRATGIPARFSGSGSGTDFTLTISSLEPEDFAVYYCHQYGSTPLTFGGGTKAEIK | 1.5 nM and 1.6 nM | 0.0036 s⁻¹ and 0.0059 s⁻¹ | 3.9e+06 M⁻¹ s⁻¹ and 2.2e+06 M⁻¹ s⁻¹
duligotuzumab (DL11) Fab fragment (Fab, V domains shown, Fab heavy chain of duligotuzumab; light chain of duligotuzumab; source: Expi293 transient expression, co-transfection of heavy and light chain vectors, purified (IMAC, Ni Sepharose Excel)) VH: EVQLVESGGGLVQPGGSLRLSCAASGFTLSGDWIHWVRQAPGKGLEWLGEISAAGGYTDYADSVKGRFTISADTSKNTAYLQMNSLRAEDTAVYYCARESRVSFEAAMDYWGQGTLVTVSS VL: DIQMTQSPSSLSASVGDRVTITCRASQDLATDVAWYQQKPGKAPKLLIYSASFLYSGVPSRFSGSGSGTDFTLTISSLQPEDFATYYCQQSEPEPYTFGQGTKVEIK | 1.9 nM and 1.7 nM | 0.0035 s⁻¹ and 0.003 s⁻¹ | 1.9e+06 M⁻¹ s⁻¹ and 1.8e+06 M⁻¹ s⁻¹
